Source: paper PMC4244909

Target: microtubules (polymers of α/β-tubulin) of the co-sedimentation and negative-stain EM experiments
Assay: co-sedimentation

Sequence of microtubules (polymers of α/β-tubulin) of the co-sedimentation and negative-stain EM experiments (P68363 whole entry, chain 1 of 2): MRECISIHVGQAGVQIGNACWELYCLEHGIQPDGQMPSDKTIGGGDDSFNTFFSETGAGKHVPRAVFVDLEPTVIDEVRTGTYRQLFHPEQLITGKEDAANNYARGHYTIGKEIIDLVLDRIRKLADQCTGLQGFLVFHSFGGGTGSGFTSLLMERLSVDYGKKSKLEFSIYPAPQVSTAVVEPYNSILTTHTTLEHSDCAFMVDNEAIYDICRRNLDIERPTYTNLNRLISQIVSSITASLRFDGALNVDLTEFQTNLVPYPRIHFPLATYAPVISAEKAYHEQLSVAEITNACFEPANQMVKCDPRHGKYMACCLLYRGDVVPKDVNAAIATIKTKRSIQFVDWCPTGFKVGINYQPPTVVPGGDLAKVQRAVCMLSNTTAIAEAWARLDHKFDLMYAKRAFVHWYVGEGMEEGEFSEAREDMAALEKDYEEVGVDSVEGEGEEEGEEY
Sequence of microtubules (polymers of α/β-tubulin) of the co-sedimentation and negative-stain EM experiments (A8K068 whole entry, chain 2 of 2, further chain): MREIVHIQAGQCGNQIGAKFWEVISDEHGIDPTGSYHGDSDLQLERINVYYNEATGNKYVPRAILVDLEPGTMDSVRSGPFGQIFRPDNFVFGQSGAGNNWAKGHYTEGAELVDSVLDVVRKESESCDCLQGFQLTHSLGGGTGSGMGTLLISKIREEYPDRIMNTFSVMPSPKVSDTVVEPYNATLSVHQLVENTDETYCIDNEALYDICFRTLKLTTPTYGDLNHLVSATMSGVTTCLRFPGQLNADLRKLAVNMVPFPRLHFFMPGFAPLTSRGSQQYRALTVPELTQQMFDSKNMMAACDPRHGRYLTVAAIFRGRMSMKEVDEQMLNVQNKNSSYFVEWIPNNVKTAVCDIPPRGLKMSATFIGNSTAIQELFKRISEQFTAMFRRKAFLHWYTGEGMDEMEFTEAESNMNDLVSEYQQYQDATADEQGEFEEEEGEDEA

B1: Hice1-MTBR (Hice1 microtubule-binding region, a.a. 1–141), Q9BT25 1-141 (domain or fragment)
chain: MADSSGRGAGKPATGPTNSSSAKKKDKRVQGGRVIESRYLQYEKKTTQKAPAGDGSQTRGKMSEGGRKSSLLQKSKADSSGVGKGDLQSTLLEGHGTAPPDLDLSAINDKSIVKKTPQLAKTISKKPESTSFSAPRKKSPD
Kd: 9.33 µM
